The test system of the experiment is H. pylori (strain AH244). It is filed as in vivo. The settings on record: BALB/c mice infected with strain AH244, 100 μg antigen + 10 μg CT orally, compared to control; FIGS. 3 and 4.

B1: SEQ ID NO: 677: H. pylori antigen of the therapeutic immunization study; number does not match the antigen list of Tables 6 and 7 (protein, listed as Helicobacter pylori)
chain: SDCMALLEIIHYPSKILRTISKEVVSFDSKLHQQLDDMHETMIASEGIGLAAIQVGLPLRMLIINLPQEDGVQHKEDCLEIINPKWIETKGSIMYREGCLSVPGFYEEVERFEKVKIEYQNRFAEVKILEASELLAVAIQHEIDHLNGVLFVDKLSILKRKKFEKELKELQKKQKHK
modifications: double-stranded, circular; misc_feature (B) LOCATION 1...531; hypothetical: NO; anti-sense: NO
With B1, the “reduction and/or eradication of the H. pylori infection (therapeutic immunization effect)” value was “did not differ from control”.

B2: SEQ ID NO: 880: H. pylori antigen of the therapeutic immunization study; number does not match the antigen list of Tables 6 and 7 (protein, listed as Helicobacter pylori)
chain: YPCHKRFSLTHSQKESPQSNSPKGVKITLILVRKFKTPSINTLSNKIAIIITCCFLSESVKLLGYSGLKNFRILRMLETSSHFLKSFRLKRYIGFLLISLALLITPFVRIDGAHLFLISFEHKQLHFLGKNL
modifications: double-stranded, circular; misc_feature (B) LOCATION 1...396; hypothetical: NO; anti-sense: NO
Consider B2, for which the “degree of colonization of the antrum” value is given as “lower”.

B3: SEQ ID NO: 465: H. pylori antigen of the therapeutic immunization study; number does not match the antigen list of Tables 6 and 7 (protein, listed as Helicobacter pylori)
chain: MGCSFIFKKVRVYSKMLVALGLSSVLIGCAMNPSAETKKPNDAKNQQPVQTHERMTTSSEHVTPLDFNYPVHIVQAPQNHHVVGILMPRIQVSDNLKPYIDKFQDALINQIQTIFEKRGYQVLRFQDEKALNVQDKKKIFSVLDLKGWVGILEDLKMNLKDSHSPI
modifications: double-stranded, circular; misc_feature (B) LOCATION 1...498; hypothetical: NO; anti-sense: NO
In the case of B3, the “reduction and/or eradication of the H. pylori infection (therapeutic immunization effect)” value was “did not differ from control”.

For the origin of these results see US20040052799A1, “Nucleic acid and amino acid sequences relating to Helicobacter pylori for diagnostics and therapeutics” (Astra Aktiebolag, priority 1996, published 2004).
